Literature values, collected in US8840883B2, “Metallo-protein and tocotrienol (MP-T3) compositions with non-protein-type metal chelator and uses thereof” (Naidu LP, priority 2007, dated 2014).

System: macrophages incubated with acetylated low-density lipoproteins (LDL)

B1: bovine milk LF: bi-lobed glycoprotein of the transferrin family of iron-binding metallo-proteins, from bovine milk (protein, UniProt P24627 20-708, looked up)
Lactotransferrin: APRKNVRWCTISQPEWFKCRRWQWRMKKLGAPSITCVRRAFALECIRAIAEKKADAVTLDGGMVFEAGRDPYKLRPVAAEIYGTKESPQTHYYAVAVVKKGSNFQLDQLQGRKSCHTGLGRSAGWIIPMGILRPYLSWTESLEPLQGAVAKFFSASCVPCIDRQAYPNLCQLCKGEGENQCACSSREPYFGYSGAFKCLQDGAGDVAFVKETTVFENLPEKADRDQYELLCLNNSRAPVDAFKECHLAQVPSHAVVARSVDGKEDLIWKLLSKAQEKFGKNKSRSFQLFGSPPGQRDLLFKDSALGFLRIPSKVDSALYLGSRYLTTLKNLRETAEEVKARYTRVVWCAVGPEEQKKCQQWSQQSGQNVTCATASTTDDCIVLVLKGEADALNLDGGYIYTAGKCGLVPVLAENRKSSKHSSLDCVLRPTEGYLAVAVVKKANEGLTWNSLKDKKSCHTAVDRTAGWNIPMGLIVNQTGSCAFDEFFSQSCAPGADPKSRLCALCAGDDQGLDKCVPNSKEKYYGYTGAFRCLAEDVGDVAFVKNDTVWENTNGESTADWAKNLNREDFRLLCLDGTRKPVTEAQSCHLAVAPNHAVVSRSDRAAHVKQVLLHQQALFGKNGKNCPDKFCLFKSETKNLLFNDNTECLAKLGGRPTYEEYLGTEYVTAIANLKKCSTSPLLEACAFLTR
  decrease of accumulation of CE in macrophages: more than 80%
